Laboratory results: paper PMC3243626 (The EMBO Journal, 2011)
Blank lines part the entries; values can stand above or below the binder they belong to. Square brackets hold non-standard residues; d marks the D form. Ends that are not written are not given here. * marks the point of attachment. Biotin = O=C1N[C@H]2[C@H](CS[C@H]2CCCCC(=O)*)N1; pT = C[C@@H](OP(=O)(O)O)[C@H](N)C(=O)O; pS = N[C@@H](COP(=O)(O)O)C(=O)O

What was measured:
[1] = target: immunopurified Mec1–18myc–Ddc2 (S. cerevisiae, UniProt P38111 1-2368; Q04377 1-747); assay: pull-down
[2] = target: T1, GST–Dpb11-N (BRCT1&2, aa 1–275) (S. cerevisiae, UniProt P47027 1-275); assay: pull-down
T1 sequence (looked up): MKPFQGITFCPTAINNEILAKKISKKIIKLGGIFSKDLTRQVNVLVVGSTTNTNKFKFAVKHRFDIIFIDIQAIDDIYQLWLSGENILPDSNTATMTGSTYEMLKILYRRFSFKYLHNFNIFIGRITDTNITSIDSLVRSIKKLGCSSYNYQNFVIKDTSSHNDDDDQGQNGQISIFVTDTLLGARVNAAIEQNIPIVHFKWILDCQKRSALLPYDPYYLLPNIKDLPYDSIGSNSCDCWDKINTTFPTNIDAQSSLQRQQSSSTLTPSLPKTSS

immunopurified Mec1–18myc–Ddc2, sequence (P38111 whole entry, chain 1 of 2, the tested form may be a part): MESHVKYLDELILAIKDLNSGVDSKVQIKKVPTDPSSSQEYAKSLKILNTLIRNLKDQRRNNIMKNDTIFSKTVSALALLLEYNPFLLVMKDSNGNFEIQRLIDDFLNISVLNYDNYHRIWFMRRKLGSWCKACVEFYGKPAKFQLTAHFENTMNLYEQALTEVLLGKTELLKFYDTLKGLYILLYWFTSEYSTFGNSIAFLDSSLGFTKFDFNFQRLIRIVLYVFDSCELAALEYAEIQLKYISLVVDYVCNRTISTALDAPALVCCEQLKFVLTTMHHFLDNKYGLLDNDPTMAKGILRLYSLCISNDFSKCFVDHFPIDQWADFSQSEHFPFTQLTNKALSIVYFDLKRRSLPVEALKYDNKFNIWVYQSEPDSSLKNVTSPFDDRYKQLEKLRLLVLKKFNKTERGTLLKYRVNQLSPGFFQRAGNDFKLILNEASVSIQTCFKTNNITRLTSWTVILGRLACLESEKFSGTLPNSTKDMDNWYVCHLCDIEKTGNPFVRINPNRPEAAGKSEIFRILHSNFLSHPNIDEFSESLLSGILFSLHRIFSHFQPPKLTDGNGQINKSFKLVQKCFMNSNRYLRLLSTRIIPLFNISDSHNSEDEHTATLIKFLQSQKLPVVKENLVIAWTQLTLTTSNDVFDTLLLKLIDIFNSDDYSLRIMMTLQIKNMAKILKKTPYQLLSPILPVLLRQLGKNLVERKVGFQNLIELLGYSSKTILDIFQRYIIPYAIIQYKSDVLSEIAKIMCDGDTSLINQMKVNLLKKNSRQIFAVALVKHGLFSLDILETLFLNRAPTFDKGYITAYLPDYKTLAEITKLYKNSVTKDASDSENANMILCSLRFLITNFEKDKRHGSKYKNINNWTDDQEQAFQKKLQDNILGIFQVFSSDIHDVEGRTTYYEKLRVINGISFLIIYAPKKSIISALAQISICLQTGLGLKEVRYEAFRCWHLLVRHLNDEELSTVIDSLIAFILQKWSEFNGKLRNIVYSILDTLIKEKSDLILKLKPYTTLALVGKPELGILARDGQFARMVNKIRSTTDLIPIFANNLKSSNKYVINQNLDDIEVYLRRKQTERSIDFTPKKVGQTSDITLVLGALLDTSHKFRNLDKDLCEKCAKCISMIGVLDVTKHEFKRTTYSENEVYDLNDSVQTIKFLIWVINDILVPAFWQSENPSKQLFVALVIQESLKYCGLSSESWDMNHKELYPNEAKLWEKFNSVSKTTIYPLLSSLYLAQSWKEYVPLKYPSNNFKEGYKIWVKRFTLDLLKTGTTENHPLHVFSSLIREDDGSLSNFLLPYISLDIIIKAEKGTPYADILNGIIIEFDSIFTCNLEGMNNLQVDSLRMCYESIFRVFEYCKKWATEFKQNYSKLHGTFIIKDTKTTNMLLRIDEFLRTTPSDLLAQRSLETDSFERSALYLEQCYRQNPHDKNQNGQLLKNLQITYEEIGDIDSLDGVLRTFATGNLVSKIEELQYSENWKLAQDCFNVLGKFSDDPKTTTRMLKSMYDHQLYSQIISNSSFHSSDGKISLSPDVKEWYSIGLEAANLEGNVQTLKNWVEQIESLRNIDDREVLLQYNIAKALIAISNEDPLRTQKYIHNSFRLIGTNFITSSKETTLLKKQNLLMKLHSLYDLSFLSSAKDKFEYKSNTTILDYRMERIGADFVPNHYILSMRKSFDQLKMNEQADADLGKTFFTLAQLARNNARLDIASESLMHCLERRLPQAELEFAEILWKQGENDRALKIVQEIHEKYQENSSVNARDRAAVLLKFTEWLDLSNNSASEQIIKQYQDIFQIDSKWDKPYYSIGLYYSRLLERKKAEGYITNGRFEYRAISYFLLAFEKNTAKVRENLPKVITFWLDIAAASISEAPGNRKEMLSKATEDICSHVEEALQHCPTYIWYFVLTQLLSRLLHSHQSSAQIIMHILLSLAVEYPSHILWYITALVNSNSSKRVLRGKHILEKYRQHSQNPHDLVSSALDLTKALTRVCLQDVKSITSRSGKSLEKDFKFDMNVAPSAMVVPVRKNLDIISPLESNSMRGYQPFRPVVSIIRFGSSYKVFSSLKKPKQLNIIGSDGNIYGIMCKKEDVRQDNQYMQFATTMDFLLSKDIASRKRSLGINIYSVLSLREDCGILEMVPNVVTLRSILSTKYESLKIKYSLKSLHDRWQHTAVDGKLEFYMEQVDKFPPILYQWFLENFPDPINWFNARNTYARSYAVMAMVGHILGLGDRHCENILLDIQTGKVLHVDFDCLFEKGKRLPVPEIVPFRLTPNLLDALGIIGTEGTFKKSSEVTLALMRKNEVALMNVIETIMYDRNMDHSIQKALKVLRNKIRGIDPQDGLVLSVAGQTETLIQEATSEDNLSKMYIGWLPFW
immunopurified Mec1–18myc–Ddc2, sequence (Q04377 whole entry, chain 2 of 2, the tested form may be a part): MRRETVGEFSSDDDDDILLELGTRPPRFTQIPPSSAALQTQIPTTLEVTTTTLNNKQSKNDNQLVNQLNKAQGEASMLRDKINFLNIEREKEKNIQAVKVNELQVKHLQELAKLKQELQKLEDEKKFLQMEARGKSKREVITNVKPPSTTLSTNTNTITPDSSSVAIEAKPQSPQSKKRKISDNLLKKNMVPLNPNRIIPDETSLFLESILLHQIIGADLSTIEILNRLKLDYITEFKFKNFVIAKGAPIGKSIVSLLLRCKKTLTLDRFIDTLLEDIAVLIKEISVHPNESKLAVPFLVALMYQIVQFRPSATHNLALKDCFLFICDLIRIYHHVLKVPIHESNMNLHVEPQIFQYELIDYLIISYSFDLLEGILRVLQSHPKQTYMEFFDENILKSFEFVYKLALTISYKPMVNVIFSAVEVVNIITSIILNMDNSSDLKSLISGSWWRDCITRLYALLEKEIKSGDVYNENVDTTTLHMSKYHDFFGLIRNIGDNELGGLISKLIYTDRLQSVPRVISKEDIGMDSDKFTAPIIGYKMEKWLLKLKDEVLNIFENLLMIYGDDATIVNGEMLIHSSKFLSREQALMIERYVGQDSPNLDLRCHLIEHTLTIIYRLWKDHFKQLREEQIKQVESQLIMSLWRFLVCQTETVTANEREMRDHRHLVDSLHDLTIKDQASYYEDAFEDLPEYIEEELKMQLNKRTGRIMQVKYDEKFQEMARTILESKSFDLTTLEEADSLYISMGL

binding result [1]: binds
B1: recombinant, full-length, His-tagged Dpb11 (natural protein, S. cerevisiae, UniProt P47027 1-764, looked up)
chain: MKPFQGITFCPTAINNEILAKKISKKIIKLGGIFSKDLTRQVNVLVVGSTTNTNKFKFAVKHRFDIIFIDIQAIDDIYQLWLSGENILPDSNTATMTGSTYEMLKILYRRFSFKYLHNFNIFIGRITDTNITSIDSLVRSIKKLGCSSYNYQNFVIKDTSSHNDDDDQGQNGQISIFVTDTLLGARVNAAIEQNIPIVHFKWILDCQKRSALLPYDPYYLLPNIKDLPYDSIGSNSCDCWDKINTTFPTNIDAQSSLQRQQSSSTLTPSLPKTSSLLNKFKPKGEKIWDKAMSLQQHSKTNFSVLGQSPLSINNKQEDLSDNSTLIFKNCAFIIHHIFPGNHRSILTKIVVQNGGKIETSYLSGIYDHSYYIIPSNKALDSFNDLPEIIDDNDGIVTEFFIERCLYYQKLLHPIDLWSKPFLSTIEFQVSSSSKLLHHEFSSSPFLNVTITGFSGVELLHLTKVLNLLKPMGINYVEYLNKSTDILLINLAALPSIPKTHPLWSNEFSDLFTQFCINNNNDDPGDNNRKDFQNNSILRNSMKRKIEYIKKFHSIPVVTPAFIFKLLSAASGENNEIFLNNIKWCIICPRGHKDDFKCKIKKPYYTSISSEKKYQNNDPKIDKTILLKRNNSSLSEHSMKDTKNELLQKIRETDSGRKKRSVSSSIMDVSSERQMPDTKRIKLESLPKNFVPKQIKRTTSWGTIMSENVPTEQPTAISNPEEIPRTEEVSHTQVTYGSIQDKKRTASLEKPMRRQTRNQTKELDS

binding result [2]: binds
Binder: TGQTEEIKTQIINSPEQNALNATFE[pT]PVTLSRINF (peptide, UniProt P14737 449-483, looked up, not fully specified (residue 23, N-terminus)) [Rad9 phospho-T474 peptide (biotinylated 35mer)]

binding result [2]: binds
Binder: {Biotin-EAhx}-GISAQKGPVFHSTGQTEEIKTQIIN[pS]PEQNALNAT (peptide, UniProt P14737 437-471, looked up) [Rad9 phospho-S462 peptide (biotinylated 35mer)]
